Among the data in patent US20160369006A1 are EC50, NFAT-luciferase reporter in CD16A Jurkat cells with RMF-pulsed T2 cells (reverse signaling) and fold decrease in EC50 relative to wildtype ESK1, CD16A reporter values, retold here.

The assay addresses FcγRIIIA (CD16A) on transduced Jurkat cells (human) (UniProt P08637). Description: cell-based or functional assay. Details: EC50, NFAT-luciferase reporter in CD16A Jurkat cells with RMF-pulsed T2 cells (reverse signaling): unit not given beside the values.

Chain of FcγRIIIA (CD16A) on transduced Jurkat cells (human) (P08637 17-254): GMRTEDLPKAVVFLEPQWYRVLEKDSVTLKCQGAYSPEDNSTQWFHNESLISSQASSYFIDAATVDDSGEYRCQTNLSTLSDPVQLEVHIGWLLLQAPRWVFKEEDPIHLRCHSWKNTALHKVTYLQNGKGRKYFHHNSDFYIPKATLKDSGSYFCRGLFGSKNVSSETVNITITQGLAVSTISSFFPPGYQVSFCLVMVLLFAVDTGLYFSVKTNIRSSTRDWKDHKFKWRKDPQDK

Turning to “ESK1 containing D265A/P329A mutations in the Fc domain (ESK1 DAPA) (antibody)”, the EC50, NFAT-luciferase reporter in CD16A Jurkat cells with RMF-pulsed T2 cells (reverse signaling) was over 10000. Substance “ESKM having 100% reduction in fucosylation (GlymaxX technology) (antibody)” came in with an EC50, NFAT-luciferase reporter in CD16A Jurkat cells with RMF-pulsed T2 cells (reverse signaling) of 0.17 and a fold decrease in EC50 relative to wildtype ESK1, CD16A reporter of 5 fold.
